Data reported in patent US20080213836.

T1: human fibrinogen, P02671
T1 chain 1: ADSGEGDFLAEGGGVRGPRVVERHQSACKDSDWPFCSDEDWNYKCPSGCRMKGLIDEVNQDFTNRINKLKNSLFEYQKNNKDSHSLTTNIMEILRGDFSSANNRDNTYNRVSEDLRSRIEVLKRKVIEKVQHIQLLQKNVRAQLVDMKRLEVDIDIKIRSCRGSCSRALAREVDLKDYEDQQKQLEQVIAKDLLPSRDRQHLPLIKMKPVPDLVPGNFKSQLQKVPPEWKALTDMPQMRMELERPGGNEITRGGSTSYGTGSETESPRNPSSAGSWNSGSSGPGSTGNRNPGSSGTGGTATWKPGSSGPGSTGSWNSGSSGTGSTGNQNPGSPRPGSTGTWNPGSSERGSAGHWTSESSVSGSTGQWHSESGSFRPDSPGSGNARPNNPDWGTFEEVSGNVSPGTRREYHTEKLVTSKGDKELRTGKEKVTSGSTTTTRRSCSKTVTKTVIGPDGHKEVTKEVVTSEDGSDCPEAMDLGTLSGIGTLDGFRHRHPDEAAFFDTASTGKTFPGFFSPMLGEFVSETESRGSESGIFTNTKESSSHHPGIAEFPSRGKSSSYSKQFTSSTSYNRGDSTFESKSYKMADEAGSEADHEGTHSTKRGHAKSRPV
T1 chain 2: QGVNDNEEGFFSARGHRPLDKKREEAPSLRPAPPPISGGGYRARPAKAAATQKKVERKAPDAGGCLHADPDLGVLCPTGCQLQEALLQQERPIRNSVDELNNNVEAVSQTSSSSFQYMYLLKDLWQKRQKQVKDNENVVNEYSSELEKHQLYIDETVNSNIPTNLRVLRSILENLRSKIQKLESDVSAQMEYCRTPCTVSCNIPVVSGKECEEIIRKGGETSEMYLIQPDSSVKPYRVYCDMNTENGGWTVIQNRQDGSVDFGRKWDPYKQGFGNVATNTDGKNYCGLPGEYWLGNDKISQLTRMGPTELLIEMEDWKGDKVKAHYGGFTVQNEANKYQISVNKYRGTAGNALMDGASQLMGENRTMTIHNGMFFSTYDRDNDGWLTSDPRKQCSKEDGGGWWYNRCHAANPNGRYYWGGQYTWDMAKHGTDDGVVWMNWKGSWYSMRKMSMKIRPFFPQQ
T1 chain 3: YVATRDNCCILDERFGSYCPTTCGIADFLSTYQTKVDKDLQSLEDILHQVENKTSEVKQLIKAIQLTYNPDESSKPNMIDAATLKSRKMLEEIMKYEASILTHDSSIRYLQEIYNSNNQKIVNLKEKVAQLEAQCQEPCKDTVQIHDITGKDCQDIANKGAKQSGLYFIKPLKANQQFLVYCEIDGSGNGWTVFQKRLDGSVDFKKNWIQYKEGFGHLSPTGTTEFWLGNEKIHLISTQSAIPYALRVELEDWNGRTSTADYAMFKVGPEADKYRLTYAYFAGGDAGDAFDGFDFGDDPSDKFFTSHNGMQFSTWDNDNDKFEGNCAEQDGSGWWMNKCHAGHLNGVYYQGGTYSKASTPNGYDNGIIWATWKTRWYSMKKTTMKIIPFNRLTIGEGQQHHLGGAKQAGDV

T2: Gly-Asp-Asp-Asp-Asp-Lys-β-naphthylamide
T2 chain: GDDDDK

T3: Z-Phe-Arg-MCA
T3 chain: FR

T4: Boc-Glu(OBzl)-Ala-Arg-MCA
T4 chain: EAR

T5: human high-molecular-weight (HMW) kininogen, P01042
T5 chain: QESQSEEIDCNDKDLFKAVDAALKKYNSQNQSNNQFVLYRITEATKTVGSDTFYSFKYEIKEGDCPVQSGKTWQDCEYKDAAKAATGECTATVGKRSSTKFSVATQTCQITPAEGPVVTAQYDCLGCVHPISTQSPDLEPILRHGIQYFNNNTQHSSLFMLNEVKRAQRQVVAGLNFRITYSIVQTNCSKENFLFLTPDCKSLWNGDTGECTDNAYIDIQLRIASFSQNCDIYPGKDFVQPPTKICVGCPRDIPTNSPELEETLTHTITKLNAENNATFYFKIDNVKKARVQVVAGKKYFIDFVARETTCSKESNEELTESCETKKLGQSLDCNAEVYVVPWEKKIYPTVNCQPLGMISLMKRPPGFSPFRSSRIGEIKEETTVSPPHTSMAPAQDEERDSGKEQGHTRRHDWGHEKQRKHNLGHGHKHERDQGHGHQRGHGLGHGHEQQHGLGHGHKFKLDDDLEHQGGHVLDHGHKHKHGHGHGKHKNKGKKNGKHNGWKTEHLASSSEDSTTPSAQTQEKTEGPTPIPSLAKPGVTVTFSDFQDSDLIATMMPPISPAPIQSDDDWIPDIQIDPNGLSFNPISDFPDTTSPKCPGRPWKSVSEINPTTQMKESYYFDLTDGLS

T6: Pro-Phe-Arg-MCA
T6 chain: PFR


Columns and labels:
[1] = target: mouse laminin
[2] = target: T1, human fibrinogen, P02671
[3] = target: T2, Gly-Asp-Asp-Asp-Asp-Lys-β-naphthylamide
[4] = target: T3, Z-Phe-Arg-MCA
[5] = target: recombinant fusion protein of Medaka trypsinogen
[6] = target: T4, Boc-Glu(OBzl)-Ala-Arg-MCA
[7] = target: T5, human high-molecular-weight (HMW) …
[8] = target: T6, Pro-Phe-Arg-MCA
[9] = target: Human plasma fibronectin, P02751
Sequence of Human plasma fibronectin, P02751 (P02751 other isoform, or with tags, fused parts or gaps): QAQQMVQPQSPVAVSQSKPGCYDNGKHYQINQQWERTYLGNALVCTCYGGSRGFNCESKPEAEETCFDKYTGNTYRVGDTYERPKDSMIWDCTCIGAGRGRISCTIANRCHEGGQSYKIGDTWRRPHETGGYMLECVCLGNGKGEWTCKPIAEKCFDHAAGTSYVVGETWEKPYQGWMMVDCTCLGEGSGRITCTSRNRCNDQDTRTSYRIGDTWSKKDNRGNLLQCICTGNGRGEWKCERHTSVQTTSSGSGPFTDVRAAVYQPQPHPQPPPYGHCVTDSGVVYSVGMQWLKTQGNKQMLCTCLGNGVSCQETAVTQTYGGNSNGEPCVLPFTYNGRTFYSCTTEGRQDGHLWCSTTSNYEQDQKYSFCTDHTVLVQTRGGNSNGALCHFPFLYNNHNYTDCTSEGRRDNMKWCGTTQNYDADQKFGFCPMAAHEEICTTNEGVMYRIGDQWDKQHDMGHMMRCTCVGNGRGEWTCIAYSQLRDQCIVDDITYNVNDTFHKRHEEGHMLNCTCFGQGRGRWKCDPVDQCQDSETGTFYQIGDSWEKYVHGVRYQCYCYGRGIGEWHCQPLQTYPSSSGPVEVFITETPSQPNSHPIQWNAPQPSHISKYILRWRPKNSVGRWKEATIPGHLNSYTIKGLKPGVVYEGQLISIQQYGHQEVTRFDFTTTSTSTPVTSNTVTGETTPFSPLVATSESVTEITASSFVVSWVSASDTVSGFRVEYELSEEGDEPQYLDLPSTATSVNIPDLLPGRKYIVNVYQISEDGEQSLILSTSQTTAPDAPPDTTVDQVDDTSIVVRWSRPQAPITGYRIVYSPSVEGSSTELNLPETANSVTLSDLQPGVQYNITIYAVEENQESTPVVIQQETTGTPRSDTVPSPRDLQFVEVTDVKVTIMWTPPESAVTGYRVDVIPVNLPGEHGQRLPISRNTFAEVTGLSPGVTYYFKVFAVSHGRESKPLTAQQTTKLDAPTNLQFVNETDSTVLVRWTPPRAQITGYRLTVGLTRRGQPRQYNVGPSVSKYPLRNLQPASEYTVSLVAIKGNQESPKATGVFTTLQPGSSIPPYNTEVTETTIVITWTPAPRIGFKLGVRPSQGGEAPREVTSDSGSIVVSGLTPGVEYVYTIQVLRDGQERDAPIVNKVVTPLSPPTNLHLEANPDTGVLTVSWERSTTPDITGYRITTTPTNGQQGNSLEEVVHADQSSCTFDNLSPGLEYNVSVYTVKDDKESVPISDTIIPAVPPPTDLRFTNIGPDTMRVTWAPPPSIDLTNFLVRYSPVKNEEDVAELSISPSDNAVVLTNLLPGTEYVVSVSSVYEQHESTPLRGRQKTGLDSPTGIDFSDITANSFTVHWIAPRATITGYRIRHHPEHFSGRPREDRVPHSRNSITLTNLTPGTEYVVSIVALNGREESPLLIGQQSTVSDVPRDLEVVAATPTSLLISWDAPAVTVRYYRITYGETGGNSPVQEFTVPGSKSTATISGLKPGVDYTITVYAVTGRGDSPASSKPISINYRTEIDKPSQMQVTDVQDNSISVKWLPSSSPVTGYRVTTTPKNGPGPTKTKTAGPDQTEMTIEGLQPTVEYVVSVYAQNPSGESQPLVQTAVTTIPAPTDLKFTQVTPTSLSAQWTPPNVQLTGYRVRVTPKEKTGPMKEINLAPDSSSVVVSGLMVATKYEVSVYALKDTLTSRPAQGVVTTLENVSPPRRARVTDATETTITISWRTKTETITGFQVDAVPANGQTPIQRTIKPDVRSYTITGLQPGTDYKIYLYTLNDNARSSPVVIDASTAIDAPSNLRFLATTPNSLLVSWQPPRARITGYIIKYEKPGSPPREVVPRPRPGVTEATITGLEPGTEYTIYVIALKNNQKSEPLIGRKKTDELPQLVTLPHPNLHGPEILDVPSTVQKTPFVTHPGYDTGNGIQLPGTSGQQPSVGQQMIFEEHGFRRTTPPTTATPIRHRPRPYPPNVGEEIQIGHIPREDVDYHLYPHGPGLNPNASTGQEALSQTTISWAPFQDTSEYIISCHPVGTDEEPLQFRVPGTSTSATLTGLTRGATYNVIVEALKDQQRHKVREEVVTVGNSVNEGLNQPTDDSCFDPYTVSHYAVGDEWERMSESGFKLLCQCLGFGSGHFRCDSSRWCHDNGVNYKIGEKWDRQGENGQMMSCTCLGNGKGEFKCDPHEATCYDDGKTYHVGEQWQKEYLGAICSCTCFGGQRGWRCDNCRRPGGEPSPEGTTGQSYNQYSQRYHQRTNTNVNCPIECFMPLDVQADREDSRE

Row | Protein | hydrolysis [1] | nonspecific proteolytic activity (SDS-PAGE) [2] | Km [3] | enzyme activity against wild-type [3] | kcat [3] | kcat/Km (mM^-1 · min^-1) [3] | Km [4] | enzyme activity against wild-type [4] | kcat [4] | kcat/Km (mM^-1 · min^-1) [4] | activation of trypsinogen [5] | conversion of trypsinogen to active enzyme [5] | Km [6] | enzyme activity against wild-type [6] | kcat [6] | kcat/Km (mM^-1 · min^-1) [6] | nonspecific proteolytic activity (SDS-PAGE) [7] | Km [8] | enzyme activity against wild-type [8] | kcat [8] | also measured
1 | Medaka EP-1 serine protease domain mutant K63R (protein) VVGGVNAEKGAWPWMVSLHWRGRHGCGASLIGRDWLLTAAHCVYGRNTHLQYWSAVLGLHAQSSMNSQEVQIRQVDRIIINKNYNRRTKEADIAMMHLQQPVNFTEWVLPVCLASEDQHFPAGRRCFIAGWGRDAEGGSLPDILQEAEVPLVDQDECQRLLPEYTFTSSMLCAGYPEGGVDSCQGDSGGPLMCLEDARWTLIGVTSFGVGCGRPERPGAYARVSAFTSWIAETRRSSFSDLD | Neither human fibronectin nor laminin was hydrolyzed by the mutants (data not shown) | The mutant proteases had lower nonspecific proteolytic activity for ... human fibrinogen | 200 µM | consistently resulted in reduced enzyme activity for synthetic peptide substrates | 3.5 s⁻¹ | 1100 | 100 µM | consistently resulted in reduced enzyme activity for synthetic peptide substrates | 0.0233 s⁻¹ | 14 | K63R converted to trypsin as fast as the wild type enzyme | A total of 12 mutants could convert the recombinant Medaka trypsinogen to its active enzyme (data not shown) | 1200 µM | consistently resulted in reduced enzyme activity for synthetic peptide substrates | 0.2 s⁻¹ | 10 | The mutant proteases had lower nonspecific proteolytic activity for human HMW kininogen | 1100 µM | consistently resulted in reduced enzyme activity for synthetic peptide substrates | 0.183 s⁻¹ | kcat/Km (mM^-1 · min^-1) [8]: 10; hydrolysis [9]: Neither human fibronectin nor laminin was hydrolyzed by the mutants (data not shown)
2 | Medaka EP-1 serine protease domain mutant P193A (protein) VVGGVNAEKGAWPWMVSLHWRGRHGCGASLIGRDWLLTAAHCVYGKNTHLQYWSAVLGLHAQSSMNSQEVQIRQVDRIIINKNYNRRTKEADIAMMHLQQPVNFTEWVLPVCLASEDQHFPAGRRCFIAGWGRDAEGGSLPDILQEAEVPLVDQDECQRLLPEYTFTSSMLCAGYAEGGVDSCQGDSGGPLMCLEDARWTLIGVTSFGVGCGRPERPGAYARVSAFTSWIAETRRSSFSDLD |  |  |  | The same held true for all the other mutants except for F144A |  |  |  | The same held true for all the other mutants except for F144A |  |  |  | A total of 12 mutants could convert the recombinant Medaka trypsinogen to its active enzyme (data not shown) |  | The same held true for all the other mutants except for F144A |  |  |  |  | The same held true for all the other mutants except for F144A |  | 
3 | Medaka EP-1 serine protease domain mutant P193E (protein) VVGGVNAEKGAWPWMVSLHWRGRHGCGASLIGRDWLLTAAHCVYGKNTHLQYWSAVLGLHAQSSMNSQEVQIRQVDRIIINKNYNRRTKEADIAMMHLQQPVNFTEWVLPVCLASEDQHFPAGRRCFIAGWGRDAEGGSLPDILQEAEVPLVDQDECQRLLPEYTFTSSMLCAGYEEGGVDSCQGDSGGPLMCLEDARWTLIGVTSFGVGCGRPERPGAYARVSAFTSWIAETRRSSFSDLD | Neither human fibronectin nor laminin was hydrolyzed by the mutants (data not shown) | The mutant proteases had lower nonspecific proteolytic activity for ... human fibrinogen | 400 µM | consistently resulted in reduced enzyme activity for synthetic peptide substrates | 4.83 s⁻¹ | 730 | 200 µM | consistently resulted in reduced enzyme activity for synthetic peptide substrates | 0.0283 s⁻¹ | 9 | the other mutants activated trypsinogen at a reduced rate | A total of 12 mutants could convert the recombinant Medaka trypsinogen to its active enzyme (data not shown) | 200 µM | consistently resulted in reduced enzyme activity for synthetic peptide substrates | 0.0383 s⁻¹ | 12 | The mutant proteases had lower nonspecific proteolytic activity for human HMW kininogen | 1000 µM | consistently resulted in reduced enzyme activity for synthetic peptide substrates | 0.45 s⁻¹ | kcat/Km (mM^-1 · min^-1) [8]: 27; hydrolysis [9]: Neither human fibronectin nor laminin was hydrolyzed by the mutants (data not shown)
4 | Medaka EP-1 serine protease domain mutant T105E (protein) VVGGVNAEKGAWPWMVSLHWRGRHGCGASLIGRDWLLTAAHCVYGKNTHLQYWSAVLGLHAQSSMNSQEVQIRQVDRIIINKNYNRREKEADIAMMHLQQPVNFTEWVLPVCLASEDQHFPAGRRCFIAGWGRDAEGGSLPDILQEAEVPLVDQDECQRLLPEYTFTSSMLCAGYPEGGVDSCQGDSGGPLMCLEDARWTLIGVTSFGVGCGRPERPGAYARVSAFTSWIAETRRSSFSDLD | Neither human fibronectin nor laminin was hydrolyzed by the mutants (data not shown) | The mutant proteases had lower nonspecific proteolytic activity for ... human fibrinogen | 400 µM | consistently resulted in reduced enzyme activity for synthetic peptide substrates | 4.33 s⁻¹ | 650 | 100 µM | consistently resulted in reduced enzyme activity for synthetic peptide substrates | 0.0333 s⁻¹ | 20 | the other mutants activated trypsinogen at a reduced rate | A total of 12 mutants could convert the recombinant Medaka trypsinogen to its active enzyme (data not shown) | 1300 µM | consistently resulted in reduced enzyme activity for synthetic peptide substrates | 0.183 s⁻¹ | 9 | The mutant proteases had lower nonspecific proteolytic activity for human HMW kininogen | 1300 µM | consistently resulted in reduced enzyme activity for synthetic peptide substrates | 0.267 s⁻¹ | kcat/Km (mM^-1 · min^-1) [8]: 12; hydrolysis [9]: Neither human fibronectin nor laminin was hydrolyzed by the mutants (data not shown)
